According to patent US20070004636:

Columns and labels:
[1] = tested on: human hepatocyte nuclear factor 1α (HNF-1α), His and Xpress-tagged at the N-terminus
[2] = tested on: T1, human hepatocyte nuclear factor 4α (HNF-4α), His and Xpress-tagged at the N-terminus
T1 sequence: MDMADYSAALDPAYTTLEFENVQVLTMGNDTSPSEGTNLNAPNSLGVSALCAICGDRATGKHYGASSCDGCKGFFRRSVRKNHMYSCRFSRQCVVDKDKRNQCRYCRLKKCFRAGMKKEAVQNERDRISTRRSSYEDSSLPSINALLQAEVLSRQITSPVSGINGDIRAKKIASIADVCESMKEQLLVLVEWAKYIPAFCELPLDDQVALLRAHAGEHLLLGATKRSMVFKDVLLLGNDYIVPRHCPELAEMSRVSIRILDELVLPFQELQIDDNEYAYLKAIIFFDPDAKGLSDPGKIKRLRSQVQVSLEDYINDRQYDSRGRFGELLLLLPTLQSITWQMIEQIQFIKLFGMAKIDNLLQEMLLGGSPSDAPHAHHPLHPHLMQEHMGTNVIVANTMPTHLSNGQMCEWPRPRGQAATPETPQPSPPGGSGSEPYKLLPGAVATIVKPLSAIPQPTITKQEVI

[3] = tested on: human insulin promoter factor 1 (IPF-1), His and Xpress-tagged at the N-terminus
Chain of human insulin promoter factor 1 (IPF-1), His and Xpress-tagged at the N-terminus (chain, as listed by the source): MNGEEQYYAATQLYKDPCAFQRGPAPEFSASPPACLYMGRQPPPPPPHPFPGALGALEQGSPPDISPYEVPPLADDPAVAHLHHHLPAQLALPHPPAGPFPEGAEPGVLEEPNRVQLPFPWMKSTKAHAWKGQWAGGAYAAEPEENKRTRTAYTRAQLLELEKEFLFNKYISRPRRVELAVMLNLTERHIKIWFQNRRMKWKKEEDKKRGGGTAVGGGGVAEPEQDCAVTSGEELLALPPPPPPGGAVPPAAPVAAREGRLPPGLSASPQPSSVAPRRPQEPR

Chain of human hepatocyte nuclear factor 1α (HNF-1α), His and Xpress-tagged at the N-terminus (chain, as listed by the source): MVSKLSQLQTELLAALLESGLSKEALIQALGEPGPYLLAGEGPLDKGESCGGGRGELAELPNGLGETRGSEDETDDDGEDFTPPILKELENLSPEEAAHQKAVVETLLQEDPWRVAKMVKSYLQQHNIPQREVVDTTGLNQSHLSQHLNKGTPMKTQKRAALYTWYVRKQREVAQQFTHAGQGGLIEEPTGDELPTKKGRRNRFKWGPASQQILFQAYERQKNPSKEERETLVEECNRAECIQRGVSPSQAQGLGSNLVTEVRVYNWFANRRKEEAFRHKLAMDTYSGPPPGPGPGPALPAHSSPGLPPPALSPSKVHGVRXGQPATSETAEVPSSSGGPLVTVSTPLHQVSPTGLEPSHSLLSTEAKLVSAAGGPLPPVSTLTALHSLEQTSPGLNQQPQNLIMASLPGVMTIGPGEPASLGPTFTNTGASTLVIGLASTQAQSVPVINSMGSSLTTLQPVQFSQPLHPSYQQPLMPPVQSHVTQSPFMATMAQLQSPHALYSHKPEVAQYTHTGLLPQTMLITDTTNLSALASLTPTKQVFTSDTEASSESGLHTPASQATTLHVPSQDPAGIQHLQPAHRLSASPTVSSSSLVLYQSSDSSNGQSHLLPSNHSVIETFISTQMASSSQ

Substance | in vitro protein degradation test, Western blotting with anti-HNF-1α antibody [1] | in vitro protein degradation test, Western blotting with anti-HNF-4α antibody [2] | in vitro protein degradation test, Western blotting with anti-IPF-1 antibody [3] | in vitro protein degradation test, Western blotting with anti-Omni/M21 and anti-HNF-1α antibody [1] | in vitro protein degradation test, Western blotting with anti-HNF-4α and anti-Xpress antibody [2] | in vitro protein degradation test, Western blotting with anti-Xpress and anti-IPF-1 antibody [3]
human m-calpain coexpressed with calpain small subunit 1 in sf-9 insect cells (cell lysate) | the degradation of human HNF-1α by human m-calpain was observed | the degradation of human HNF-4α by human m-calpain was observed | the degradation of human IPF-1 by human m-calpain was observed |  |  | 
rabbit m-calpain, extracted from rabbit muscle (Protease, Calcium-Activated Neutral (calpain), Sigma Chemical Co.) |  |  |  | the in vitro degradation of HNF-1α by each of human µ-calpain, rabbit m-calpain and rat m-calpain was observed | the degradation of HNF-4α by rabbit m-calpain was observed | the in vitro degradation of IPF-1 by each of human µ-calpain, rabbit m-calpain and rat m-calpain was observed
